Measurements taken from the DeepSol protein solubility set.

Test: soluble on expression in E. coli; label from the status in PepcDB or PDB records

| Sequence | soluble on expression in E. coli |
| --- | --- |
| MDAWKEITKTTENDGVSTCSLSSIAFDPYSELVWTGHKNGQIKSSFGPSLTSYTQFIGHEGPVHQVLPQERGVFSLSSKSLRLSNRKGTIRWRYHSVPCVQRSMIILYSCFLCSKHAVLISRDSDCIDYRAMFYQSRNNPEVVIGGYHQKLTVVNAERGISIHKDKNVSDIFIMRRNRLLCCGSTNGEIILRDPNSFQPVNKVVAHTGTISDIDTSGNLLLSCGYSLRHGTYMLDPFVKVWDLRNLSSLVPIPFPAGPTIIRMHPKLSTTAVVCSCSGQFHIVDTGNPLDAKLMQIPLTSYLTGMDIASTGDAMVFTDVEDNIHLWSPLENPSFSDLKLPIQLPNTSTETVQLENNDPLNSIGLPYYKDELLSSWSKYLIFDVGKPILDSNLLIAKQISENSHPVPQEIKSFHRNQIIEVPWLNRKLISEGATPKFHSERQKDIMSGNDIEGSASYFEEIEDTISGPDSIPKFYQRPVIKYSKFGIEDFDFGFYNKTKYAGLETDITNSYCNSVLQLLSYVPSFSKAAISHSLGPCDLMECLLCELGFLFAMLKESTGRNCQATNFLRAFSNSSFAQSLGIVFDDYSDGTFPDSFVIQKFTKFMLTEISRIADYEDKKDGTSFPVSFLLKSFCIPEMQTYRCGICGITSQKIKSSLYIIDLHYPSQQLESILSFEWLFKMSLDRRVDLPPGWCEYCLAHQPFLLRSFIRSLPDCLFINTQVKHHEHWKLWARKNWLPKKLHLRRVNDTMQCVSQKISNLDKDQQSLSVYVLRGIIYEIRQNGEEPHFVSTIRVSDNTSSDNPDDNRWYIFNDFLVKEVTEEEALTVHGPWKIPIIVYYEKLDTKIPQWDEVSDYTLLYQPYSLNKNPPINKIQPLTTDEMLYPKMLVGIDSEFVALQQEETEVRSDGTKSTIKPSKLSLARVSVLRGEGPNKGLPFIDDYVATDDKVTDYLTEYSGIHPGDLDPDRSPYNVVPLKVAYKKLRLLVNAGCIFVGHGLQKDFRIINLLVPPEQVVDTVDLFFLSSRQRKLSLKFLAWYLLDEEIQLTEHDSIEDALTALKLYDCYDKLKSQGKLEETLDNIYEVGRRFKFRPPSVASMSLEDRNSYGDESVISNQTN | soluble |
| MDDDFLPRRLKYSKHSLMLVALDYIPKELHKCLDMDRLEDVSAGGAYTTKQMLEEILNSDSRFRIYGNAEVFEKLLEKYMNFTSCREKFGFEKLQVLCVPIPMSPNLKGEKYLTKQDMFEHVQFYLMDVFHHTGFPFDNVVISLAFIKFRADRLNGCMEFVSNAREVLNSIESEIDQFLDELLDILNAEYFPKNYALPSKNPSFDTLYKQWKSFFPDWKPDELDSIQRFLEDRYSHLPPHKNAEKYGGILFVNHYLTNKYRELIDSRPEVFLPYNAMNRHKAPITVRVILFKDTKLVLRGELYKAMNQAYPDRVPIDYTDDLEEGIIYAMNFEDVFKEFGDLWYDIEFILTKVTRTNNATPILTLSGEFCIPGLQAFYNIFHVMNNVLRLFQKVKKEMWHFVCGYVKILEVRLKPFEDTPCFITNTALETIIQELCEYWRMFENAPFKDIRTVKGATFTADDLKNELSHIGVLDIFPELGELVDTGYQAILEVKQNADNLKTWDLMDYLESTLIFCFSSRFEFLNNLLEIQEGIHPKNENLANIFLGITSKPENLLPYLIDKSRYQDVLPTVPLERHRVRVTYNFSIDDETISEPTPVPQQLEKKTENCSECNDVRMEMNTVKDVLQNVQKQLKNMQQNSEQFETKLVASDNKTKNFEKQLEDERRKNNKHLESSRKTLISKNEQLEALKRRATALSNCQAENQTLKFKIAEHHLLEKQLNISNKDVTQARDQLSGQISELEIQLKSELKTVQHLKKEQTISCNLTNEITKLKDQIEREKLCSKQLEKEISQLRTEADEMNIVMTQSLEMENLQLRDATKKFETENASLLKTNQQLSIQNEEQKRLIQVLLEKQQTAPSSSDFPVPSTQMTDNEENSRQQLWKYQKIKDSFRDGIKLRKAEAMVKKLTSLNRDPGVHQMAHRELENFKKLTSHYLQAIEMNILKIKNNGSSDLEQLPEAPKFSDEFMRFYRNATGKQTLTSASFSSGNSRGTQSYGSSISTMPSTSSRGNVQHHSGSAVRGQSITPTGLSQVPMSPRKLFSQPNIVTASITSTELDDTECAICLDEMTNFKETIKCQCRRRFHLECATKWLNEKRECPTCRKLLLNPSDYPPLN | not soluble |
| MDDPASYELDPSIAQRVKFNSAGLVPAVVQSTDGEVLMLAWMDAHALAYTIATRKGTYFSRSRNEYWIKGLTSGHTQQVTGLQLDCDGDTVLMTVVQQGGACHTGDRTCFDADVII | not soluble |
| MDDREGSFVAVRRISQGLERGSVYNSSSAEAVPGSAAWLGRGLSCVCAQRRDSDANSTFDLTPAQEECLQSLQNRIDVAYDSTIPLHQEALRELWKLSFPEEELHGLISEQWKEMGWQGKDPSTDFRGGGFISLENLLYFARNFQKSFQDLLRKQVGDRSVWEYPFAVAGINLTFMLIQMLDLEAVKPRTIVGATFLKFLSENESAFDLLYCIAFKLMDQQWLSMRASYMEFNTVMKSTRRQLERELMLEDIMHLEDLPSYALLNQ | not soluble |
| MDDSDDEYSRSHGETLTFVDPEDDGVSIGNTQDSQFAYEQFSVPTQSSQATDLLPGGTDGTTNDLPFHDVEDDESDSEKSLTEEQQQQKLPEHACRYCGISDPLCVAKCTVCRKWFCNSNDGTSGGHIVHHMVRSQHKEAYTHKDSPCGDTQLECYRCGSKNVFNLGFIPGKKDQVVVIICRTPCASIAFQNDDNWSPEDWKSVIAEKQLLSWIVNVPSEEQVARARKITATQAVRMEELWRDHPEATVDDLNKPGLDREPDHVQLRYVDAHHYSKVFRPLVAIEAEYDRRVKESASQAVGTVRWEQGLRQSVLAFFHLPQFADGVMKLAKGDELRLKHSQTVDGSEWTKIGSVFKIPDNHGDEVGIEIRGAVDKSVMESRIMFTVDVVWNATTFERQYKALAALLNDSKAISPYLYQKLLGHPAEEMMLKFDLPRRLSVAGLPELNSSQMQAVKQVLTRPLSLIQGPPGTGKTVVSATIVYHLVQKTEGNVLVCSPSNIAVDHLAEKIHKTGLKVVRLCARSREHSETTVPYLTLQHQLKVMGGAELQKLIQLKDEAGELEFKDDLRYMQLKRVKEHELLAAADVICCTCSSAADARLSKIRTRTVLIDESTQATEPEILVSIMRGVRQLVLVGDHCQLGPVVICKKAAIAGLSQSLFERLVLLGIRPFRLQVQYRMHPVLSEFPSNVFYDGSLQNGVTENDRHMTGVDWHWPKPNKPAFFWHCSGSEELSASGTSFLNRTEAANVEKLVSKLIKAGVQPHQIGVITPYEGQRSFIVNYMHTQGTLNSKLYENVEIASVDAFQGREKDYIIVTCVRSNDILGIGFLSDPRRLNVAITRAKYGLVLVGNAKVLARHDLWHELINHYKSKEMLYEGPINALKPLNLALPKATIRTKNNIAGNANRFGIKRMQYTFNEYKSNDPSQPRLPPTYSNSQNLLSMSKLAQTFNKNVPIPAHMMDPNVYAAARNQKDRRRGDQRRPPPQAEAAMDLSQGMMSQQSQQYPPQGASSQSQYLLDGASSLSGWSQSQTTTTTTRHHHHRQNRNSQQQMSQDMDDIQQKMDDLLFSQDC | not soluble |
| MDEEEEISVVQDMAYDYSGKRLATVSIDREICIWNKKDDWQRTYQWKAHEGPLFGVSWAHPCFGNILATGSYDKRVIIWEEPEASSSYSSSSMDKSTKGWTALAHLVDARDEVRQVQFAPPHLGLLLASGSADGYVRIYTCIDEADLHQWPLLTELDMDSPVVGMSWNPSVDSIPLIVVASHKDCRVWSMDNDTRRWTDWHLFRTSESDTADLSAVAWAPHVGRSFERIALGCEDGSILLFQFPRIQQGNKTNGHEMQPICRLNHGNERIVRLQWNMVGSILASSASDRMVRLWKALPQDGTRWNCFDVVHLNE | not soluble |
| MDEHFIKIHKWLYPVSWIYGAVVTVRNKLFDWGFLRSKSFGVPVICIGNLSVGGTGKTPHTEYLIKLLRDNYHVAVLSRGYKRHSRGYVLATPQSTARSIGDEPYQMHTKFPSVTLAVDENRCHGIEQLLSIKEPSIEVVLLDDAFQHRYVKPGLSILLTDYHRLFCDDTLLPAGRLRESVNGKNRAQIVIVTKCPQDIKPIDYNIITKRLNLYPYQQLYFSSFRYGNLQPVFPSANSEIDSTVNELPLSALTNTDILLVTGIASPAPILEELKMYTDQIDSLSFDDHHHFSHRDIQQIKERFGKLKGEHKLIVTTEKDATRLIHHPVLSEELKPFIYALPIEIEILQNQQDKFNQHIIGYVRENTRNSSFSERENAHQSLEHHHHHH | soluble |
| MDELNRGHAGRTVIRNIEAACEMDPEKRVVISKTDQGSEANMPGHWTGCARPTRDPFVPFVAGRGESVAVRYNSRFGRRFDDQSVNGQPDPSLAYVFLGHELIHASRTLQGTQYRVSRGRPDVDEDSGAAEEELRTVGIGQYEDEYPSENAIRREHGLAPRTSYSGNTGTNLREPPERNSQYTEARLRSLNARRWSDM | not soluble |
| MDELNSPLGERAQGASLAHVVWSDPQWLERYPLTFENVLTYFSRSPFYDPTCNNELVRMQMHPELQGEMLYYTQREEELLLGMQGVEYVPLCSSDAHELFIIRKQVRRSADEVHVTNLYYILYGQVYEAPAFSTVLLVRLRQSADFLVRSLGLLRQWLSKKEYGEPGATGHGHEDTLLLQLLRKAQQRNRQL | not soluble |
| MDEVDVALIGAGIMSATLGAMLRTLEPGWTQVMFERLDAPAQESSSPWNNAGTGHSALCELNYTPEVKGRVQIDKALGVNEKFQISRQFWSYQVNEGVLPSPREWINPVPHVSFGRGEDQVAYLKKRYEALAAHPLFPNMQYTDDRAKFAEMLPLMADGRSEFEKVAISWTDAGTDINYGSQTRQFLKAAEKNGTEIRYGHEVKDIKRDGAKWRVTVKNVHTGDTQVIRANFVFVGAGGMALPLLQKTGLEHHHHHH | soluble |
| MDFECQFVCELKELAPVPALLIRTQTTMSELGSLFEAGYHDILQLLAGQGKSPSGPPFARYFGMSAGTFEVEFGFPVEGGVEGSGRVVTGLTPSGKAASSLYIGPYGEIEAVYDALMKWVDDNGFDLSGEAYEIYLDNPAETAPDQLRTRVSLMLHESLEHHHHHH | soluble |
| MDFGKTNSKLFVFGQDGGILDERRTQPKWTHQDGFSVLDEAALHDWALGAVTEAVENHGVEGVMVSGHGCTFALVDDAALTHPILDYEQEPPAEIAARIDHRIPDFAETFSPRLPLGFNYGRHMLWVQEVDPDAFAAAKSILGYPQYWSWRLGGRPVSEVSYLGCHSHLWAPRSQDFSSLVDAEGWRGQMPAFARAGAVIGERRLGSSSRPIAIHNGVHDSNAALHAYRRQELGLEHHHHHH | soluble |
| MDGAGAEEVLAPLRLAVRQQGDLVRKLKEDKAPQVDVDKAVAELKARKRVLEAKELALQPKDDIVDRAKMEDTLKRRFFYDQAFAIYGGVSGLYDFGPVGCALKNNIIQTWRQHFIQEEQILEIDCTMLTPEPVLKTSGHVDKFADFMVKDVKNGECFRADHLLKAHLQKLMSDKKCSVEKKSEMESVLAQLDNYGQQELADLFVNYNVKSPITGNDLSPPVSFNLMFKTFIGPGGNMPGYLRPETAQGIFLNFKRLLEFNQGKLPFAAAQIGNSFRNEISPRSGLIRVREFTMAEIEHFVDPSEKDHPKFQNVADLHLYLYSAKAQVSGQSARKMRLGDAVEQGVINNTVLGYFIGRIYLYLTKVGISPDKLRFRQHMENEMAHYACDCWDAESKTSYGWIEIVGCADRSCYDLSCHARATKVPLVAEKPLKEPKTVNVVQFEPSKGAIGKAYKKDAKLVMEYLAICDECYITEMEMLLNEKGEFTIETEGKTFQLTKDMINVKRFQKTLYVEEVVPNVIEPSFGLGRIMYTVFEHTFHVREGDEQRTFFSFPAVVAPFKCSVLPLSQNQEFMPFVKELSEALTRHGVSHKVDDSSGSIGRRYARTDEIGVAFGVTIDFDTVNKTPHTATLRDRDSMRQIRAEISELPSIVQDLANGNITWADVEARYPLFEGQETGKKETIEELEHHHHHH | soluble |
